Blank lines part the entries; values can stand above or below the substance they belong to.
Experiments:
[1] = biological target: RPA2 (subunit of the RPA trimer) (UniProt P15927); assay: MST with dye-labelled RPA trimer
[2] = biological target: RPA2 (subunit of the RPA trimer) (UniProt P15927); assay: peptide-bead pull-down, anti-RPA2 blot
[3] = biological target: RPA2 WH (Homo sapiens) (UniProt P15927); assay: NMR; details: cited from earlier work
[4] = biological target: RPA2 WH (Homo sapiens) (UniProt P15927); assay: ITC; details: cited from earlier work
[5] = biological target: human replication protein A (RPA) heterotrimer, recombinant (human) (UniProt P27694)
Chain of human replication protein A (RPA) heterotrimer, recombinant (human) (P27694 whole entry, chain 1 of 3, the tested form may be a part): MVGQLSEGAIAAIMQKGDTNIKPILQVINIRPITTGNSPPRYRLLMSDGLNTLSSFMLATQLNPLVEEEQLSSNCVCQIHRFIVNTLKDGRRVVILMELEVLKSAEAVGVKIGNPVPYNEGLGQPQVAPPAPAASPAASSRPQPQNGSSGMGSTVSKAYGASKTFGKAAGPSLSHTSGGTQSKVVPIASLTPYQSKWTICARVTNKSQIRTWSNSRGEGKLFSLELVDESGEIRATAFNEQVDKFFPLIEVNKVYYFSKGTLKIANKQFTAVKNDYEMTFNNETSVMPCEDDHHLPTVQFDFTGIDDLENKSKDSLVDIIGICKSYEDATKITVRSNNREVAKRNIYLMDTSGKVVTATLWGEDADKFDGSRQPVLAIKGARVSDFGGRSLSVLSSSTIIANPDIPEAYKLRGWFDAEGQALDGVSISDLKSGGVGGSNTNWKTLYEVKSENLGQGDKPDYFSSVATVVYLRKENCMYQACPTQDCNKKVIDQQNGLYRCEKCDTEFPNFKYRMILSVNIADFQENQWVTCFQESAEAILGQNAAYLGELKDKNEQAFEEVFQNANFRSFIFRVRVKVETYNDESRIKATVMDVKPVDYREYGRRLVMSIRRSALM
Chain of human replication protein A (RPA) heterotrimer, recombinant (human) (P15927 whole entry, chain 2 of 3, further chain, the tested form may be a part): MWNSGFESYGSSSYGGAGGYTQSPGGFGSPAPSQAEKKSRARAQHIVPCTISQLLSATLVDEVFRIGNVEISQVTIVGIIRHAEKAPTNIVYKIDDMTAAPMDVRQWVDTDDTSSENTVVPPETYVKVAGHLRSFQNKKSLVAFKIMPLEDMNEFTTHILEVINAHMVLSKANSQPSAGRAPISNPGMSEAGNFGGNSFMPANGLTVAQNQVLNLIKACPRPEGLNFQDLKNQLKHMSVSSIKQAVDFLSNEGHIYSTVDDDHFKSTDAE
Chain of human replication protein A (RPA) heterotrimer, recombinant (human) (P35244 whole entry, chain 3 of 3, further chain, the tested form may be a part): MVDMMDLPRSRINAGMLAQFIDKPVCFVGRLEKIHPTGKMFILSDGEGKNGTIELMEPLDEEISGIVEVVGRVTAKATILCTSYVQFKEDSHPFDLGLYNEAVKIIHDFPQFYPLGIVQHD

[6] = biological target: RPA trimer lacking the RPA2 winged-helix domain (RPA-ΔWH) (human) (UniProt P27694)
Chain of RPA trimer lacking the RPA2 winged-helix domain (RPA-ΔWH) (human) (P27694 whole entry, stated change not applied, chain 1 of 3, the tested form may be a part): as the sequence (P27694 whole entry, chain 1 of 3, the tested form may be a part) above
Chain of RPA trimer lacking the RPA2 winged-helix domain (RPA-ΔWH) (human) (chain, as listed by the source mutant, chain 2 of 3): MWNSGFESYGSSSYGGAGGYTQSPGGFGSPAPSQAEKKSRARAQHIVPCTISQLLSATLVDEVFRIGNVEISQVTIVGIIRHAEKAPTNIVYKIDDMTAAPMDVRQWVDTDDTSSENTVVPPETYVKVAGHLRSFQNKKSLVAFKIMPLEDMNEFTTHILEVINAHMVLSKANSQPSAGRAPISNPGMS
Chain of RPA trimer lacking the RPA2 winged-helix domain (RPA-ΔWH) (human) (chain, as listed by the source mutant, chain 3 of 3): as the sequence (P35244 whole entry, chain 3 of 3, further chain, the tested form may be a part) above

[7] = biological target: human replication protein A (RPA) heterotrimer, recombinant (human) (UniProt P27694); remark: listed apart in the source

Chain of UNG catalytic domain (UNG-CD), starting at UNG2 aa 93 (P13051 93-313): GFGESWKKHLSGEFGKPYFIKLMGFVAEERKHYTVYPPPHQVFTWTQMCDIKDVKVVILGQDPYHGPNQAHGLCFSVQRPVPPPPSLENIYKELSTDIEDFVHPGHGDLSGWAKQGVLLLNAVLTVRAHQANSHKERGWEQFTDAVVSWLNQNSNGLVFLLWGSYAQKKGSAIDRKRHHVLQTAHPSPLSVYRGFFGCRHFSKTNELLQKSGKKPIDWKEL
Chain of RPA2 WH (Homo sapiens) (P15927 172-270): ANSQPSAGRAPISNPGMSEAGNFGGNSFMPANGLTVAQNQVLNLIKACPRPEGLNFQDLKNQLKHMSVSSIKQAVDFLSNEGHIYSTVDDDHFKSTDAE
Chain of UNG2 peptide (24 aa) (P13051 whole entry): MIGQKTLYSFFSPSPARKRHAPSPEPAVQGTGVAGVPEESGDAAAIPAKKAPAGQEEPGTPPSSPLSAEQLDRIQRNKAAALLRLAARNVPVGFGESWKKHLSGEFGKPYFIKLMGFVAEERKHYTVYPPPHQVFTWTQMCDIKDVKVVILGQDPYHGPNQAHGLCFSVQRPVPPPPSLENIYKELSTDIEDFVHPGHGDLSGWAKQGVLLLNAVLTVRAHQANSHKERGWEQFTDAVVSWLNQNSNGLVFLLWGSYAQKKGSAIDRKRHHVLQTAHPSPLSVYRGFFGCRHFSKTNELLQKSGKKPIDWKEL
Chain of UNG2 peptide (16 aa) (P13051 whole entry): as above

Substance: UNG2 57-90 (from UniProt P13051) pEV-34 (pT60) peptide beads
binding against the reference ([2]; reference: EV-34 unphosphorylated peptide beads, sites T60): weaker

Substance: UNG2 peptide (16 aa) (from UniProt P13051)
Kd [3]: < 1 µM

Substance: UNG2 peptide (24 aa) (from UniProt P13051)
Kd [4]: 6.6 µM

Substance: UNG catalytic domain (UNG-CD), starting at UNG2 aa 93 (from UniProt P13051-1 93-313) (domain or fragment)
fold decrease in uracil excision from RPA (1 µM)-coated against naked ssDNA (100 nM U10-25*) [5]: 1000 fold
fold increase of enzyme concentration needed to convert similar amounts of dsDNA substrate with 500 nM RPA-ΔWH [6]: 50 fold
fold increase of enzyme concentration needed to convert similar amounts of dsDNA substrate with 500 nM RPA-WT [7]: 200 fold

More lines, now with the values ahead:

binding against the reference ([1]; reference: EV-34 unphosphorylated peptide, sites T60): weaker
Substance: UNG2 57-90 (from UniProt P13051) pEV-34 (pT60) peptide

binding against the reference ([1]; reference: EV-34 unphosphorylated peptide, sites T60,S64): weaker
binding against the reference ([1]; reference: pEV-34 (pT60) peptide, sites S64): weaker
Substance: UNG2 57-90 (from UniProt P13051) ppEV-34 (pT60, pS64) peptide

binding against the reference ([2]; reference: EV-34 unphosphorylated peptide beads, sites T60,S64): weaker
binding against the reference ([2]; reference: pEV-34 (pT60) peptide beads, sites S64): weaker
Substance: UNG2 57-90 (from UniProt P13051) ppEV-34 (pT60, pS64) peptide beads
